Measured values from article PMC3352088, “Structure and function of the transketolase from Mycobacterium tuberculosis and comparison with the human enzyme” (Open Biology, 2012).

Tests used:
[1] = system: O=C(CO)[C@@H](O)[C@H](O)COP(=O)(O)O; test: purified protein; conditions: TPP, Mg2+ donor substrate; substrate cleft
[2] = system: O=C(CO)[C@@H](O)[C@H](O)[C@H](O)COP(=O)(O)O; test: purified protein; conditions: TPP, Mg2+ donor substrate; substrate cleft
[3] = system: O=C[C@H](O)[C@H](O)[C@H](O)COP(=O)(O)O; test: purified protein; conditions: TPP, Mg2+ acceptor substrate; substrate cleft
[4] = target: the molecule itself; test: crystal structure; TBTKT with TPP and Mg2+, space group P1, four molecules (two dimers) in the asymmetric unit, 2.5 Å; crystals from 0.1 M ammonium acetate, 0.1 M bis-tris pH 5.5, 17% w/v PEG 10 000, 22°C

With “transketolase (TBTKT) (Mycobacterium tuberculosis H37Rv)” the Km [1] was 350 ± 120 µM, the Km [2] was 630 ± 90 µM and the Km [3] was 820 ± 120 µM.

B1: transketolase from Mycobacterium tuberculosis (TBTKT) (enzyme)
chain: MTTLEEISALTRPRHPDYWTEIDSAAVDTIRVLAADAVQKVGNGHPGTAMSLAPLAYTLFQRTMRHDPSDTHWLGRDRFVLSAGHSSLTLYIQLYLGGFGLELSDIESLRTWGSKTPGHPEFRHTPGVEITTGPLGQGLASAVGMAMASRYERGLFDPDAEPGASPFDHYIYVIASDGDIEEGVTSEASSLAAVQQLGNLIVFYDRNQISIEDDTNIALCEDTAARYRAYGWHVQEVEGGENVVGIEEAIANAQAVTDRPSFIALRTVIGYPAPNLMDTGKAHGAALGDDEVAAVKKIVGFDPDKTFQVREDVLTHTRGLVARGKQAHERWQLEFDAWARREPERKALLDRLLAQKLPDGWDADLPHWEPGSKALATRAASGAVLSALGPKLPELWGGSADLAGSNNTTIKGADSFGPPSISTKEYTAHWYGRTLHFGVREHAMGAILSGIVLHGPTRAYGGTFLQFSDYMRPAVRLAALMDIDTIYVWTHDSIGLGEDGPTHQPIEHLSALRAIPRLSVVRPADANETAYAWRTILARRNGSGPVGLILTRQGVPVLDGTDAEGVARGGYVLSDAGGLQPGEEPDVILIATGSEVQLAVAAQTLLADNDILARVVSMPCLEWFEAQPYEYRDAVLPPTVSARVAVEAGVAQCWHQLVGDTGEIVSIEHYGESADHKTLFREYGFTAEAVAAAAERALDN
notes: also called Rv1449; rv1449c gene product
In the case of B1, the “stoichiometry N” value [4] is reported as 2.
